Experiment [1] deals with T1, human serum albumin (human, UniProt P02768 25-609).
T1 construct: also called HSA
The experiment can be described thus: SPR (MASS-1), HSA immobilised, trispecific as analyte, pH 5.5.
Description: (§1) The binding to human serum albumin (HSA) and cynomolgus serum albumin (CSA) was assessed for purified trispecific molecules by running SPR spectroscopy on a MASS-1 device (Sierra Sensors). HSA was directly immobilized on a high capacity amine sensor chip (Sierra Sensors) and trispecific molecules were injected as analyte using a dose response multicycle kinetic assay with concentrations of the analyte ranging from 0.35 to 90 nM diluted either in running buffer at pH5.5 or pH7.5. Obtained sensorgrams were fitted using the 1:1 binding model. Affinity to CSA was assessed in a similar approach using a CSA immobilized sensor chip.

For experiment [2], the target named is T1, human serum albumin. Put plainly: SPR (MASS-1), trispecific immobilised, antigens injected sequentially.
Description: (§2) All possible sequences of antigen injection were tested resulting in six possible sequences.
(§3) To evaluate concomitant binding of each antigen to trispecific molecules, the binding level relative to the theoretical Rmax was calculated for each injection using the respective ligand and analyte molecular masses and the immobilization level of the trispecific molecules. The average of the maximum binding relative to theoretical Rmax for each antigen was obtained by averaging individual maximum binding relative to theoretical Rmax obtained for the two injections where the respective antigen was injected as first analyte (in the absence of other bound antigens). Next, the binding relative to the theoretical Rmax of each analyte injection was compared to its average maximum binding to calculate the fraction binding obtained in the presence of other bound antigens. […] The binding levels relative to the theoretical Rmax and the average of maximum binding (binding levels in the absence of other antigens) of each antigen were calculated.
In experiment [3] the target is T2, human TNFα (human, UniProt P01375 77-233).
T2 construct: Biotinylated in the Biacore assay
The experiment is described as above.
Description: as §2, §3

The target of experiment [4] is T3, human IL-17A (human, UniProt Q16552 24-155).
T3 construct: Recombinant human IL-17A (Peprotech Cat. No. 200-17), disulfide-linked homodimer from E. coli; Biotinylated or RPE-labelled in some assays; also called hIL-17A; IL-17A-RPE (labelled)
Described as above.
Description: as §2, §3

Experiment [5] addresses T2, human TNFα. Put plainly: cell-based or functional assay.
Experiment [6] has as its target T3, human IL-17A. The experiment can be described thus: cell-based or functional assay.
For experiment [7], the target named is T3, human IL-17A. The experiment can be described thus: competitive ELISA, blocking of IL-17A/IL-17RA interaction (summary table). A general note: ELISA stands for enzyme-linked immunosorbent assay.
Description: (§4) Finally, Tetramethylbenzidine solution was added to develop the plate for 5 to 10 minutes and the reaction was stopped with 1 M HCl. The plate was read at 450 nm and 570 nm (reference wavelength).
Experiment [8] has as its target T2, human TNFα. Put plainly: cell-based or functional assay. This is another data set of the same source.
Experiment [9] has as its target T2, human TNFα. The experiment can be described thus: SPR (summary table), affinity to human TNF.
Description: (§5) In this experiment, the biotinylated antigens were captured using the Biotin-CAPture kit from Biacore. After each analyte injection cycle the CAP sensor chip was regenerated and new antigen was captured. Trispecific molecules were injected as analyte using a dose response multicycle kinetic assay with concentrations of the analyte ranging from 0.35 to 90 nM diluted in running buffer. Obtained sensorgrams were fitted using the 1:1 binding model.
The target of experiment [10] is T1, human serum albumin. The experiment can be described thus: SPR (summary table), affinity to HSA at pH 5.5.
Description: as §1
The target of experiment [11] is T1, human serum albumin. Put plainly: SPR (MASS-1), trispecific immobilised, HSA injected as last analyte.
Description: as §2, §3
Experiment [12] has as its target T3, human IL-17A. The experiment can be described thus: competitive ELISA: biotinylated human IL-17A preincubated with the trispecific molecule, then binding to coated IL-17RA detected (blocked ligand: IL-17RA) [left panel].
For experiment [13], the target named is T2, human TNFα. Put plainly: SPR (Biacore T200), biotinylated antigen captured (Biotin-CAPture), trispecific as analyte. (In general: In SPR one partner is held on a chip, and binding of the other changes the refractive index at the surface.)
Description: as §5
The target of experiment [14] is T3, human IL-17A. The experiment is described as above.
Description: as §5
For experiment [15], the target named is T3, human IL-17A. Put plainly: competitive ELISA: IL-17RA coated, biotinylated IL-17A preincubated with trispecific molecule.
Description: as §4
Experiment [16] deals with T1, human serum albumin. Put plainly: SPR (MASS-1), HSA immobilised, trispecific as analyte, pH 7.4.
Description: as §1
Experiment [17] deals with T3, human IL-17A. Put plainly: SPR (summary table), affinity to human IL-17, capture setup.
Description: as §5
The target in experiment [18] is T3, human IL-17A. Put plainly: SPR (Biacore T200), direct setup: IL-17A amine-coupled on CM5, scFv as analyte.
Description: (§6) After each analyte injection cycle the CAP sensor chip was regenerated and new antigen was captured. The scFvs were injected as analyte using a dose response multi-cycle kinetic assay with concentrations of the analyte ranging from 0.35 to 90 nM diluted in running buffer. Obtained sensorgrams were fitted using the 1:1 binding model. In addition, the scFvs were analyzed in an alternative SPR assay setup (“direct setup”).
Experiment [19] concerns the target T3, human IL-17A. Put plainly: cell-based or functional assay. The source holds these as a separate data set.
Experiment [20] concerns the target T3, human IL-17A. Put plainly: SPR (Biacore T200), capture setup: biotinylated IL-17A captured, scFv as analyte.
Description: as §6
In experiment [21] the target is T4, cynomolgus monkey IL-17A (Macaca fascicularis (cynomolgus monkey)).
T4 construct: also called cyno IL-17A; cyno IL17A
Put plainly: SPR (Biacore T200), cynomolgus IL-17A, scFv as analyte.
Description: as §6

Experiment [22] addresses T3, human IL-17A. Put plainly: competitive ELISA: IL-17RA coated, biotinylated IL-17A preincubated with scFv.
Description: Finally, Tetramethylbenzidin solution (KPL, Cat. No. 53-00-00) was added to develop the plate for 5 to 10 minutes and the reaction was stopped with 1 M HCl. The plate was read using a microtiter plate reader (Infinity reader M200 Pro, Tecan) at a wavelength of 450 nm and 570 nm (reference wavelength).
In experiment [23] the target is T4, cynomolgus monkey IL-17A. The experiment can be described thus: SPR (Biacore T200).
Description: as §6

B1: A4 (trispecific tribody, Fab-(scFv)2) (other)
light: DIQMTQSPSSLSASVGDRVTITCQASQTINYWLAWYQQKPGKAPKLLIYRASTLASGVPSRFSGSGSGTDFTLTISSLQPEDFATYYCQNYYYSTSRSYGFGGGTKLTVLGRTRTVAAPSVFIFPPSDEQLKSGTASVVCLLNNFYPREAKVQWKVDNALQSGNSQESVTEQDSKDSTYSLSSTLTLSKADYEKHKVYACEVTHQGLSSPVTKSFNRGECGGGGSGGGGSDIQMTQSPSSLSASVGDRVTINCQASESISSWLAWYQQKPGKRPKLLIYKASTLASGVPSRFSGSGSGTDYTLTISSLQPEDFATYYCQGYYLDSSVDDNVFGGGTKLTVLGGGGGSGGGGSGGGGSGGGGSEVQLVESGGGLVQPGGSLRLSCAASGIDFSTYGISWVRQAPGKGLEWIAYIYPDYGITDYASWVNGRFTISLDNAQNTVYLQMNSLRAEDTAVYYCARSGSYYSRGWGAHYFNLWGQGTLVTVSS
heavy: EVQLVESGGGLVQPGGSLRLSCAASGFSFSSDYWMCWVRQAPGKGLEWIGCIYAGDVDDTDYASWARGRFTISRDNSKNTVYLQMNSLRAEDTAVYYCARVDGFDITYFDLWGQGTLVTVSSASTKGPSVFPLAPSSKSTSGGTAALGCLVKDYFPEPVTVSWNSGALTSGVHTFPAVLQSSGLYSLSSVVTVPSSSLGTQTYICNVNHKPSNTKVDKKVEPKSCGGGGSGGGGSDIQMTQSPSSLSASVGDRVTITCQSSESVYSNNQLSWYQQKPGQPPKLLIYDASDLASGVPSRFSGSGSGTDFTLTISSLQPEDFATYYCAGGFSSSSDTAFGGGTKLTVLGGGGGSGGGGSGGGGSGGGGSEVQLVESGGGLVQPGGSLRLSCAASGFSLSSNAMGWVRQAPGKGLEYIGIISVGGFTYYASWAKGRFTISRDNSKNTVYLQMNSLRAEDTATYFCARDRHGGDSSGAFYLWGQGTLVTVSS
notes: Trispecific tribody
B1: the Kd with human serum albumin [1] amounted to 1.67 nM; in the experiment with human TNFα [9], 0.257 nM; in the experiment with human serum albumin [10], 1.67 nM; with human TNFα [13], 0.257 nM; in the experiment with human IL-17A [14], 0.337 nM; in the experiment with human serum albumin [16], 4.79 nM. This molecule registered a Kd with human IL-17A [17] of 0.337 nM. Besides, the koff is 0.000308 s⁻¹ with human serum albumin [1], 2.33e-05 s⁻¹ with human TNFα [13], 7.23e-05 s⁻¹ with human IL-17A [14] and 0.000417 s⁻¹ with human serum albumin [16]. The kon with human serum albumin [1] was 185000 M⁻¹ s⁻¹; in the experiment with human TNFα [13], 90800 M⁻¹ s⁻¹; with human IL-17A [14] it was 215000 M⁻¹ s⁻¹; in the experiment with human serum albumin [16] it was 87200 M⁻¹ s⁻¹. Also, the “antigen binding relative to average maximum binding” value with human serum albumin [2], in the experiment with human TNFα [3] and with human IL-17A [4] was not below 70% each time. For the same molecule, in the experiment with human TNFα [5], the “rel. IC50 to A13 (nM) in HT-29 assay, +HSA” value is 0.3. Moreover, the “rel. IC50 to A13 (nM) in HT-29 assay, -HSA” value with human TNFα [5] amounted to 0.6. Moreover, in the experiment with human IL-17A [6], the “rel. IC50 to secukinumab (ng/ml) in HT-29 assay, +HSA” value came out at 6. In addition, the “rel. IC50 to secukinumab (ng/ml) in HT-29 assay, -HSA” value in the experiment with human IL-17A [6] turned out to be 7.1. In the experiment with human IL-17A [7], the “rel. IC50 (IC50, secukinumab/IC50, test sample, ng/ml)” value was found to be 6.3. The “IC50 in L929 assay, cell viability” value in the experiment with human TNFα [8] was 0.08 nM. The “rel. IC50 in L929 assay (IC50, A13/IC50, test sample, nM)” value with human TNFα [8] was determined as 0.2. In the experiment with human serum albumin [11], the “relative binding level compared to average maximum binding” value is approximately 70%. Also, the “IC50 (read off the curve)” value with human IL-17A [12] was approximately 3 ng/mL. Moreover, the “rel. IC50 to secukinumab (IC50, secukinumab/IC50, test sample, ng/ml)” value in the experiment with human IL-17A [15] worked out at 6.3.

B2: A3 (trispecific tribody, Fab-(scFv)2) (other)
light: DIQMTQSPSSLSASVGDRVTITCQSSESVYSNNQLSWYQQKPGQPPKLLIYDASDLASGVPSRFSGSGSGTDFTLTISSLQPEDFATYYCAGGFSSSSDTAFGGGTKLTVLGRTRTVAAPSVFIFPPSDEQLKSGTASVVCLLNNFYPREAKVQWKVDNALQSGNSQESVTEQDSKDSTYSLSSTLTLSKADYEKHKVYACEVTHQGLSSPVTKSFNRGECGGGGSGGGGSDIQMTQSPSSLSASVGDRVTINCQASESISSWLAWYQQKPGKRPKLLIYKASTLASGVPSRFSGSGSGTDYTLTISSLQPEDFATYYCQGYYLDSSVDDNVFGGGTKLTVLGGGGGSGGGGSGGGGSGGGGSEVQLVESGGGLVQPGGSLRLSCAASGIDFSTYGISWVRQAPGKGLEWIAYIYPDYGITDYASWVNGRFTISLDNAQNTVYLQMNSLRAEDTAVYYCARSGSYYSRGWGAHYFNLWGQGTLVTVSS
heavy: EVQLVESGGGLVQPGGSLRLSCAASGFSLSSNAMGWVRQAPGKGLEYIGIISVGGFTYYASWAKGRFTISRDNSKNTVYLQMNSLRAEDTATYFCARDRHGGDSSGAFYLWGQGTLVTVSSASTKGPSVFPLAPSSKSTSGGTAALGCLVKDYFPEPVTVSWNSGALTSGVHTFPAVLQSSGLYSLSSVVTVPSSSLGTQTYICNVNHKPSNTKVDKKVEPKSCGGGGSGGGGSDIQMTQSPSSLSASVGDRVTITCQASQTINYWLAWYQQKPGKAPKLLIYRASTLASGVPSRFSGSGSGTDFTLTISSLQPEDFATYYCQNYYYSTSRSYGFGGGTKLTVLGGGGGSGGGGSGGGGSGGGGSEVQLVESGGGLVQPGGSLRLSCAASGFSFSSDYWMCWVRQAPGKGLEWIGCIYAGDVDDTDYASWARGRFTISRDNSKNTVYLQMNSLRAEDTAVYYCARVDGFDITYFDLWGQGTLVTVSS
notes: Trispecific anti-IL-17A x TNFα x HSA tribody; Expressed in CHO-S
Regarding B2, the equilibrium dissociation constant (Kd) is 0.947 nM with human serum albumin [1]; less than 0.0232 nM in the experiment with human TNFα [9]; 0.947 nM in the experiment with human serum albumin [10]; less than 0.0232 nM with human TNFα [13]; 1.53 nM in the experiment with human IL-17A [14]; 1.37 nM with human serum albumin [16]. Further, in the experiment with human IL-17A [17], the affinity, expressed as Kd, was 1.53 nM. For the same molecule, the koff is 0.00059 s⁻¹ with human serum albumin [1], less than 1e-06 s⁻¹ with human TNFα [13], 9.04e-05 s⁻¹ in the experiment with human IL-17A [14] and 0.000557 s⁻¹ in the experiment with human serum albumin [16]. In addition, the kon came to 623000 M⁻¹ s⁻¹ with human serum albumin [1], 43100 M⁻¹ s⁻¹ in the experiment with human TNFα [13], 59100 M⁻¹ s⁻¹ in the experiment with human IL-17A [14] and 406000 M⁻¹ s⁻¹ with human serum albumin [16]. Moreover, the “antigen binding relative to average maximum binding” value with human serum albumin [2], with human TNFα [3] and with human IL-17A [4] was not below 70% each time. Moreover, the “rel. IC50 to A13 (nM) in HT-29 assay, +HSA” value with human TNFα [5] worked out at 0.5. Also, in the experiment with human TNFα [5], the “rel. IC50 to A13 (nM) in HT-29 assay, -HSA” value is 0.2. Moreover, the “rel. IC50 to secukinumab (ng/ml) in HT-29 assay, +HSA” value in the experiment with human IL-17A [6] was determined as 11.8. Further, the “rel. IC50 to secukinumab (ng/ml) in HT-29 assay, -HSA” value with human IL-17A [6] is 2.4. The “rel. IC50 (IC50, secukinumab/IC50, test sample, ng/ml)” value in the experiment with human IL-17A [7] worked out at 2.2. The “IC50 in L929 assay, cell viability” value with human TNFα [8] worked out at 4.5 nM. In addition, the “rel. IC50 in L929 assay (IC50, A13/IC50, test sample, nM)” value with human TNFα [8] came out at 0.003. Besides, the “IC50 (read off the curve)” value with human IL-17A [12] is approximately 9 ng/mL. In addition, the “rel. IC50 to secukinumab (IC50, secukinumab/IC50, test sample, ng/ml)” value in the experiment with human IL-17A [15] came to 2.2.

B3: A2 (humanized anti-IL-17A scFv, STR graft of 27-07-G02) (scFv)
scFv: DIQMTQSPSSLSASVGDRVTITCQASQTINYWLAWYQQKPGKPPKLLIYRASTLASGVPSRFSGSGSGTDFTLTISSLQPEDFATYYCQNYYYSTSRSYGFGGGTKLTVLGGGGGSGGGGSGGGGSGGGGSEVQLVESGGGLVKPEGSLRLSCAASGFSFSSDYWMCWVRQAPGKGLEWIACIYAGDVDDTDYASWARGRFTISRDNSKNTVYLQMNSLRAEDTAVYYCARVDGFDITYFDLWGQGTLVTVSS
notes: VL-linker-VH; also called 27-07-G02-sc02
In the experiment with human IL-17A [18], B3 displayed a Kd of 0.0551 nM, a koff of 5.92e-05 s⁻¹ and a kon of 1.08e+06 M⁻¹ s⁻¹. Besides, the “IC50 in HT-29 assay, GRO-α secretion” value in the experiment with human IL-17A [19] stood at 0.1 ng/mL. In addition, in the experiment with human IL-17A [20], the Kd is 3.07 nM, the koff worked out at 0.000697 s⁻¹ and the kon turned out to be 227000 M⁻¹ s⁻¹. In the experiment with cynomolgus monkey IL-17A [21], this molecule yielded a Kd of 5.19 nM, a koff of 0.000868 s⁻¹ and a kon of 167000 M⁻¹ s⁻¹. The molecule also showed an IC50 with human IL-17A [22] of 1.6 ng/mL. In the experiment with cynomolgus monkey IL-17A [23], the “KD, cyno/KD, human” value worked out at 1.69.

Broadly, the Kd is the equilibrium constant for the complex coming apart. One may read the koff as a measure of how fast the partners let go of each other. A word on the kon: it is a measure of how fast the partners come together. One may read the IC50 as the midpoint of a concentration-inhibition curve.

The values are drawn from patent US20220127350A1 (NUMAB THERAPEUTICS, published 2022).
